Test results from patent publication US20090022738A1 (MICROMET, published 2009).

T1: CD19 (human, UniProt P15391 20-556)
T1 construct: whole, on cells; also called CD19 on NALM-6 cells
T1 sequence (looked up): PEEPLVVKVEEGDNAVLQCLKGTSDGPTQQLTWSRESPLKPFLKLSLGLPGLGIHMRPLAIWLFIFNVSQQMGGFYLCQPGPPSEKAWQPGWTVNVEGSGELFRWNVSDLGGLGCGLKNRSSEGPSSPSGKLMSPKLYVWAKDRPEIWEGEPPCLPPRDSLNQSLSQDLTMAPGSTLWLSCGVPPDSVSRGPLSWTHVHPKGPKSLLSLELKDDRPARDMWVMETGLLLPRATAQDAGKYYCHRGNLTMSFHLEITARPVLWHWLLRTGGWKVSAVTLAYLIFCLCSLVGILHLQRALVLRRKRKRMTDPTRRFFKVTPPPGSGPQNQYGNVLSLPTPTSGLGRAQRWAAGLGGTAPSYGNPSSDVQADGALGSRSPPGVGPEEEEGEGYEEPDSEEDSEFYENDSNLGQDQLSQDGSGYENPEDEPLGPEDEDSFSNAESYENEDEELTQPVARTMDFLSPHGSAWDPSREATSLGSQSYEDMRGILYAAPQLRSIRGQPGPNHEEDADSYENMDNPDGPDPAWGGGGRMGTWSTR

T2: Epithelial cell adhesion molecule (EpCAM) (human, UniProt P16422 24-314)
T2 construct: whole, on cells; also called 17-1A antigen; KSA
T2 sequence (looked up): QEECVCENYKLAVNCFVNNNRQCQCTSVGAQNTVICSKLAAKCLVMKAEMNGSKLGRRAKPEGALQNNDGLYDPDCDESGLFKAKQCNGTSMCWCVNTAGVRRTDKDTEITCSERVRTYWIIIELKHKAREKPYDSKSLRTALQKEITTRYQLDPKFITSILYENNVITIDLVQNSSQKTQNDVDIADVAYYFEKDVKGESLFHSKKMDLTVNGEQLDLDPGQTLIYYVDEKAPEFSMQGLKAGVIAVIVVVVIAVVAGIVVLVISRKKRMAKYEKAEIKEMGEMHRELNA

B1: anti-CD19×anti-CD3 (VH5/VL1) (SEQ ID NO.:190) (bispecific antibody)
chain: DIQLTQSPASLAVSLGQRATISCKASQSVDYDGDSYLNWYQQIPGQPPKLLIYDASNLVSGIPPRFSGSGSGTDFTLNIHPVEKVDAATYHCQQSTEDPWTFGGGTKLEIKGGGGSGGGGSGGGGSQVQLQQSGAELVRPGSSVKISCKASGYAFSSYWMNWVKQRPGQGLEWIGQIWPGDGDTNYNGKFKGKATLTADESSSTAYMQLSSLASEDSAVYFCARRETTTVGRYYYAMDYWGQGTTVTVSSGGGGSDVQLVQSGAEVKKPGASVKVSCKASGYTFTRYTMHWVRQAPGQGLEWIGYINPSRGYTNYADSVKGRFTITTDKSTSTAYMELSSLRSEDTATYYCARYYDDHYCLDYWGQGTTVTVSSGEGTSTGSGGSGGSGGADDIQMTQSPSSLSASVGDRVTITCRASQSVSYMNWYQQKPGKAPKRWIYDTSKVASGVPARFSGSGSGTDYSLTINSLEAEDAATYYCQQWSSNPLTFGGGTKVEIK
notes: As m4: bispecific single chain, His-tagged; also called pEF anti-CD19×anti-CD3 (VH5/VL1)
B2: anti-CD19×anti-CD3 (VH7/VL1) (SEQ ID NO.:196) (bispecific antibody)
chain: DIQLTQSPASLAVSLGQRATISCKASQSVDYDGDSYLNWYQQIPGQPPKLLIYDASNLVSGIPPRFSGSGSGTDFTLNIHPVEKVDAATYHCQQSTEDPWTFGGGTKLEIKGGGGSGGGGSGGGGSQVQLQQSGAELVRPGSSVKISCKASGYAFSSYWMNWVKQRPGQGLEWIGQIWPGDGDTNYNGKFKGKATLTADESSSTAYMQLSSLASEDSAVYFCARRETTTVGRYYYAMDYWGQGTTVTVSSGGGGSDVQLVQSGAEVKKPGASVKVSCKASGYTFTRYTMHWVRQAPGQGLEWIGYINPSRGYTNYNQKFKDRVTITTDKSTSTAYMELSSLRSEDTAVYYCARYYDDHYCLDYWGQGTTVTVSSGEGTSTGSGGSGGSGGADDIQMTQSPSSLSASVGDRVTITCRASQSVSYMNWYQQKPGKAPKRWIYDTSKVASGVPARFSGSGSGTDYSLTINSLEAEDAATYYCQQWSSNPLTFGGGTKVEIK
notes: As m4: bispecific single chain, His-tagged; also called pEF anti-CD19×anti-CD3 (VH7/VL1)
B3: deimmunized anti-CD3 (VH5/VL2)×5-10 (VL-VH) (SEQ ID NO.:39) (bispecific antibody)
chain: DVQLVQSGAEVKKPGASVKVSCKASGYTFTRYTMHWVRQAPGQGLEWIGYINPSRGYTNYADSVKGRFTITTDKSTSTAYMELSSLRSEDTATYYCARYYDDHYCLDYWGQGTTVTVSSGEGTSTGSGGSGGSGGADDIVLTQSPATLSLSPGERATLSCRASQSVSYMNWYQQKPGKAPKRWIYDTSKVASGVPARFSGSGSGTDYSLTINSLEAEDAATYYCQQWSSNPLTFGGGTKVEIKSGGGGSELVMTQSPSSLTVTAGEKVTMSCKSSQSLLNSGNQKNYLTWYQQKPGQPPKLLIYWASTRESGVPDRFTGSGSGTDFTLTISSVQAEDLAVYYCQNDYSYPLTFGAGTKLEIKGGGGSGGGGSGGGGSEVQLLEQSGAELVRPGTSVKISCKASGYAFTNYWLGWVKQRPGHGLEWIGDIFPGSGNIHYNEKFKGKATLTADKSSSTAYMQLSSLTFEDSAVYFCARLRNWDEPMDYWGQGTTVTVSS
notes: Bispecific single chain, VH(CD3)-VL(CD3)-VL(EpCAM)-VH(EpCAM); detected by anti-His; also called anti-CD3 (VH5/VL2)x5-10 (VL-VH)
B4: anti-CD19×anti-CD3 (VH7/VL2) (SEQ ID NO.:198) (bispecific antibody)
chain: DIQLTQSPASLAVSLGQRATISCKASQSVDYDGDSYLNWYQQIPGQPPKLLIYDASNLVSGIPPRFSGSGSGTDFTLNIHPVEKVDAATYHCQQSTEDPWTFGGGTKLEIKGGGGSGGGGSGGGGSQVQLQQSGAELVRPGSSVKISCKASGYAFSSYWMNWVKQRPGQGLEWIGQIWPGDGDTNYNGKFKGKATLTADESSSTAYMQLSSLASEDSAVYFCARRETTTVGRYYYAMDYWGQGTTVTVSSGGGGSDVQLVQSGAEVKKPGASVKVSCKASGYTFTRYTMHWVRQAPGQGLEWIGYINPSRGYTNYNQKFKDRVTITTDKSTSTAYMELSSLRSEDTAVYYCARYYDDHYCLDYWGQGTTVTVSSGEGTSTGSGGSGGSGGADDIVLTQSPATLSLSPGERATLSCRASQSVSYMNWYQQKPGKAPKRWIYDTSKVASGVPARFSGSGSGTDYSLTINSLEAEDAATYYCQQWSSNPLTFGGGTKVEIK
notes: As m4: bispecific single chain, His-tagged; all other places say VH7/VL2
B5: anti-CD19×anti-CD3 (VH7/VL3) (SEQ ID NO.:200) (bispecific antibody)
chain: DIQLTQSPASLAVSLGQRATISCKASQSVDYDGDSYLNWYQQIPGQPPKLLIYDASNLVSGIPPRFSGSGSGTDFTLNIHPVEKVDAATYHCQQSTEDPWTFGGGTKLEIKGGGGSGGGGSGGGGSQVQLQQSGAELVRPGSSVKISCKASGYAFSSYWMNWVKQRPGQGLEWIGQIWPGDGDTNYNGKFKGKATLTADESSSTAYMQLSSLASEDSAVYFCARRETTTVGRYYYAMDYWGQGTTVTVSSGGGGSDVQLVQSGAEVKKPGASVKVSCKASGYTFTRYTMHWVRQAPGQGLEWIGYINPSRGYTNYNQKFKDRVTITTDKSTSTAYMELSSLRSEDTAVYYCARYYDDHYCLDYWGQGTTVTVSSGEGTSTGSGGSGGSGGADDIVLTQSPATLSLSPGERATLTCRASSSVSYMNWYQQKPGKAPKRWIYDTSKVASGVPARFSGSGSGTDYSLTINSLEAEDAATYYCQQWSSNPLTFGGGTKVEIK
notes: As m4: bispecific single chain, His-tagged; also called pEF anti-CD19×anti-CD3 (VH7/VL3); anti-CD3 (VH7/VK3)

Experiments:
human CD3 [1] = biological target: T3, human CD3 (human, UniProt P07766 23-207; P04234 22-171; P09693 23-182); assay: FACS, non-diluted crude supernatant on CD3-enriched PBMCs; anti-His + FITC anti-mouse
T3 construct: whole, on cells; also called CD3 antigen; human CD3 complex
Procedure: (§1) In order to analyze the binding efficacy of the deimmunized constructs to CD3 and CD19 a FACS-based assay was performed. Initially, crude supernatants were tested for binding on CD3-enriched PBMCs or CD19-positive NALM-6 cells. Cells were incubated with non-diluted supernatants for 30 minutes at 8° C. Upon two wash steps the cells were labeled with an anti-His antibody (Qiagen) under the same conditions. After additional wash steps binding of the constructs was detected with a FITC-conjugated sheep anti-mouse antibody (Sigma). Cells were analyzed with a FACS Calibur cytometer (B&D). As controls supernatants of anti-CD19×anti-CD3 and GFP-transfected cells were included. […] The positive control, which was a non-deimmunized anti-CD19×anti-CD3 construct reached a MFI of around 60 showing that the deimmunized constructs comprising anti-CD3 (VH5/VL1) (SEQ ID NO.:190), anti-CD3 (VH5/VL2) (SEQ ID NO.:192), anti-CD3 (VH5/VL3) (SEQ ID NO.:194), anti-CD3 (VH7/VL1) (SEQ ID NO.:196), anti-CD3 (VH7/VL2) (SEQ ID NO.:198) and anti-CD3 (VH7/VL3) (SEQ ID NO.:200) bound CD3 with extremely high efficacy.

CD19 [2] = biological target: T1, CD19; assay: FACS, purified constructs at 1 and 5 µg/ml on CD19-positive NALM cells
Procedure: Binding was measured by a FACS-based assay using CD3 enriched PBMCs (A) or CD19-positive NALM-cells (B). A secondary antibody with CD3 positive cells was used as a negative control in (A) and a secondary antibody with CD19 positive cells was used as a negative control in (B). Constructs anti-CD19×anti-CD3 and anti-EpCAM (M79)×anti-CD3 were used as controls. Assay was carried out with concentrations of 1 μg/ml and 5 μg/ml. MFI indicates mean fluorescence intensity.
as §1

CD19 [3] = biological target: T1, CD19; assay: FACS, crude supernatant on CD19-positive NALM-6 cells; negative control MFI ca. 3
Procedure: as §1
The FACS-based binding assay was also carried out for CD19. In this experiment CD19 and a secondary antibody was as a negative control. In this experiment, all assayed constructs achieved a MFI of at least 80 while the MFI of the negative control was ca. 3.

human CD3 [4] = biological target: T3, human CD3; assay: FACS, purified construct at 0.5 µg/ml as printed, on CD3 positive cells
human CD3 [5] = biological target: T3, human CD3; assay: FACS, 10 µg/ml on Jurkat cells
Procedure: (§2) Binding of the bispecific single chain molecules with anti-CD3 part in N-terminal orientation to EpCAM and CD3 were confirmed by FACS analyses. For that purpose the EpCAM positive human gastric cancer cell line Kato III (ATCC HTB-103) was used.
(§3) Cells were cultured according to the recommendations of the supplier and a number of 200000 cells was incubated with 10 μg/ml of the construct in 50 μl PBS with 2% FCS (fetal calf serum). The binding of the construct was detected with an anti-His antibody (Penta-His Antibody, obtained from Qiagen, Hilden, FRG) at 2 μg/ml in PBS with 2% FCS. […] The samples were measured on a FACSscan (BD biosciences, Heidelberg, FRG).

[6] = biological target: T2, Epithelial cell adhesion molecule …; assay: FACS, 10 µg/ml on EpCAM positive Kato III cells
Procedure: as §2, §3

| Binder | MFI (human CD3 [1]) [MFI] | fold over the negative control (secondary antibody only, MFI ca. 3.5) (human CD3 [1]) [fold] | MFI (CD19 [2]) [MFI] | MFI (CD19 [3]) [MFI] | MFI (human CD3 [4]) [MFI] | binding result (human CD3 [5]) | binding result [6] |
| --- | --- | --- | --- | --- | --- | --- | --- |
| B1 | ≥ 90 | ~25 | ~200 | ≥ 80 | ≥ 40 |  |  |
| B2 | ≥ 90 | ~25 | ~200 | ≥ 80 | ≥ 40 |  |  |
| B3 |  |  |  |  |  | binds | binds |
| B4 | ≥ 90 | ~25 | ~200 | ≥ 80 | 25 |  |  |
| B5 | ≥ 90 | ~25 | ~200 | ≥ 80 | ≥ 40 |  |  |
